Values of other authors in paper PMC10083361.
pKd: −log10 of the molar value.

Molecular target: TRAF2 (Homo sapiens) (UniProt Q12933)
Sequence (Q12933 2-501): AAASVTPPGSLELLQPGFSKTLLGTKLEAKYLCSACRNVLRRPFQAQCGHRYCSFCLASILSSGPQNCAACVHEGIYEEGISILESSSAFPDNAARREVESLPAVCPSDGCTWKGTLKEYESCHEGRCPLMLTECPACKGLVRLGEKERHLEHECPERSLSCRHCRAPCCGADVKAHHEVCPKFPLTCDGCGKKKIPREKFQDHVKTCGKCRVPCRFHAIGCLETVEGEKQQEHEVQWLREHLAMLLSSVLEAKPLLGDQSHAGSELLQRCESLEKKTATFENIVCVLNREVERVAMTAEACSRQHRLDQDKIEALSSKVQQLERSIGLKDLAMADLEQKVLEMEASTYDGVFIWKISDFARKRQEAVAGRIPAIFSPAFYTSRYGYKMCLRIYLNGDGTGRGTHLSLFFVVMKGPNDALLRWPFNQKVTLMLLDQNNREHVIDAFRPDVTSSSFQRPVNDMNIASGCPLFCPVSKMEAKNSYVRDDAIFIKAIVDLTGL

4-1BB, sequence (Q07011 24-255): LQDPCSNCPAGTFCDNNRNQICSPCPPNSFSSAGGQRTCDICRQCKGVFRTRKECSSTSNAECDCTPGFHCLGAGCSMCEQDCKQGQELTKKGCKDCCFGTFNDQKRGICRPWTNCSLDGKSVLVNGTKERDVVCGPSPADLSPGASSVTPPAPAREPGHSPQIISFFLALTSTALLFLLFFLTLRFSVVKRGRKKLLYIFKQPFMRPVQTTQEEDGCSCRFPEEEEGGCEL

pKd: 3.00
Substance: 4-1BB (from UniProt Q07011)
